Two molecules from patent publication CN114409797A (HEFEN TIANKPORT IMMUNOLOGICAL DRUG CO LTD, dated 2022) can be followed below.

This test addresses PD-L1蛋白 (expressed on CHO-K1-PD-L1 cells) (Homo sapiens (Human), UniProt Q9NZQ7 19-290). The experiment in a line: flow cytometry on CHO-K1-PD-L1 cells, Alexa-647 anti-human Fc secondary antibody. Background: In flow cytometry, cells or beads pass a laser one at a time.

Sequence of PD-L1蛋白 (expressed on CHO-K1-PD-L1 cells) (Q9NZQ7 19-290 limits assumed): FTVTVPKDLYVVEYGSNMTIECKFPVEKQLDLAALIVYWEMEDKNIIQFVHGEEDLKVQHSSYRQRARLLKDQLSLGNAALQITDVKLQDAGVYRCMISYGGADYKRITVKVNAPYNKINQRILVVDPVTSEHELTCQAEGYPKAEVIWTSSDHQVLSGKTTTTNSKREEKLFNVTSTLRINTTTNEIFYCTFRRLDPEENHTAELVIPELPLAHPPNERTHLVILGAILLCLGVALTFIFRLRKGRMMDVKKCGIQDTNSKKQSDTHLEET

B1: CD3×PD1mut双特异抗体 (bispecific antibody)
chain 1: EVQLLESGGGLVQPGGSLKLSCAASGFTFNTYAMNWVRQAPGKGLEWVARIRSKYNNYATYYADSVKDRFTISRDDSKNTAYLQMNNLKTEDTAVYYCVRHGNFGNSYVSWFAYWGQGTLVTVSSGGGGSGGGGSGGGGSELVVTQEPSLTVSPGGTVTLTCRSSTGAVTTSNYANWVQQKPGQAPRGLIGGTNKRAPGTPARFSGSLLGGKAALTLSGVQPEDEAEYYCALWYSNLWVFGGGTKLTVLGGGGSPKSCDKTHTCPPCPAPELLGGPSVFLFPPKPKDTLMISRTPEVTCVVVAVSHEDPEVKFNWYVDGVEVHNAKTKPREEQYASTYRVVSVLTVLHQDWLNGKEYKCKVSNKALPAPIEKTISKAKGQPREPQVYTLPPSREEMTKNQVSLWCLVKGFYPSDIAVEWESNGQPENNYKTTPPVLDSDGSFFLYSKLTVDKSRWQQGNVFSCSVMHEALHNHYTQKSLSLSPGK
chain 2: not shown
notes: Two-chain knob-into-hole heterodimer with human IgG1 Fc
As to B1, the binding result is reported as “binds”.

B2: CD3×PD1双特异抗体 (bispecific antibody)
chain 1: EVQLLESGGGLVQPGGSLKLSCAASGFTFNTYAMNWVRQAPGKGLEWVARIRSKYNNYATYYADSVKDRFTISRDDSKNTAYLQMNNLKTEDTAVYYCVRHGNFGNSYVSWFAYWGQGTLVTVSSGGGGSGGGGSGGGGSELVVTQEPSLTVSPGGTVTLTCRSSTGAVTTSNYANWVQQKPGQAPRGLIGGTNKRAPGTPARFSGSLLGGKAALTLSGVQPEDEAEYYCALWYSNLWVFGGGTKLTVLGGGGSPKSCDKTHTCPPCPAPELLGGPSVFLFPPKPKDTLMISRTPEVTCVVVAVSHEDPEVKFNWYVDGVEVHNAKTKPREEQYASTYRVVSVLTVLHQDWLNGKEYKCKVSNKALPAPIEKTISKAKGQPREPQVYTLPPSREEMTKNQVSLWCLVKGFYPSDIAVEWESNGQPENNYKTTPPVLDSDGSFFLYSKLTVDKSRWQQGNVFSCSVMHEALHNHYTQKSLSLSPGK
chain 2: not shown
notes: as for B1
Turning to B2, the binding result is listed as “binds”.
